Where two headings read alike, the source gives them in different places. Values belong to the binder of their own block, whether it stands above or below them.
Legend:
Human Serum Albumin [1] = biological target: T1, Human Serum Albumin (human, UniProt P02768 25-609); test: SPR Biacore T200, HSA on CM5 chip, ADAPT injected, 1:1 fit
T1 construct: also called HSA
Description: (§1) Sensor-based binding analysis was performed using a Biacore T200 system (GE Healthcare, Stockholm, Sweden). All analyses were conducted using CM-5 sensor chips coated with the target antigen, another irrelevant antigen and HSA. One surface was left as reference. Binding analysis was performed in PBS-T at 25° C. The ADAPT variants were diluted in PBS-T to 500 nM, 250 nM, 125 nM, 62.5 nM and 31.25 nM. The samples were injected at a flow rate of 30 ul/min for 120 s followed by injection of PBS-T for 240 s to monitor the dissociation. Surfaces were regenerated with 10 mM HCl. Kinetic parameters were determined using the Biacore Insight Evaluation software, assuming a 1:1 binding.

Human Serum Albumin [2] = biological target: T1, Human Serum Albumin; test: as above; remark: listed apart in the source
Description: as §1

angiogenin [3] = biological target: T2, angiogenin (human (produced in the Human Secretome …, UniProt P03950 25-147)); test: SPR Biacore T200, target on CM5 chip, ADAPT injected, 1:1 fit
T2 construct: also called bANG
T2 sequence (P03950 25-147 limits assumed): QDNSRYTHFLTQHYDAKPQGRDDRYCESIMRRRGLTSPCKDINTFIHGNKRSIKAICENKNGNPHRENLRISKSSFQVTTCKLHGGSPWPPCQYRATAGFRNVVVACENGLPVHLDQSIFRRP
Description: as §1

angiogenin [4] = biological target: T2, angiogenin; test: as above; remark: listed apart in the source
Description: as §1
(§2) Variants with sufficient alpha helical structure as well as monomeric elution profiles on the SEC column were further analyzed for binding towards their target protein as well as to HSA. The binding towards the target antigen used in the selection was measured by a multi-cycle analysis using SPR, showing that several binders had affinities in the μM-pM range. […] After target binding had been established, the variants were also evaluated for their ability to simultaneously bind to HSA. This was done either through an SPR capture assay or an experiment where the ADAPT was pre-incubated with saturating conditions of HSA before the binding towards the target was analyzed. […] In total, thirteen of the characterized binders from the selections towards TNFα, PSA, ANG, MYDGF and Insulin could bind both HSA and its target antigen simultaneously. FIG. 5 contains sensorgrams for the thirteen variants in the capture assay.

[5] = biological target: T3, tumor necrosis factor alpha (human (produced in the Human Secretome …, UniProt P01375 77-233, limits assumed)); test: as above
T3 construct: also called TNFα; bTNFα
T3 sequence (P01375 77-233 limits assumed): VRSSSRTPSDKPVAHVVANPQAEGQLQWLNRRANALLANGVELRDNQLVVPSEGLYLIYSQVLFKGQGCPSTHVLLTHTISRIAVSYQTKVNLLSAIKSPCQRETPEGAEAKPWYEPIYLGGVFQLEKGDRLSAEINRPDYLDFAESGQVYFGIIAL
Description: as §1, §2

[6] = biological target: T3, tumor necrosis factor alpha; test: as above; remark: listed apart in the source
Description: as §1

[7] = biological target: T4, Human recombinant Insulin (human, UniProt P01308 25-54; P01308 90-110, limits assumed); test: as above
T4 construct: also called bInsulin
T4 sequence (P01308 25-54 limits assumed, chain 1 of 2): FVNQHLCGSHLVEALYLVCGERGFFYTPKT
T4 sequence (P01308 90-110 limits assumed, chain 2 of 2): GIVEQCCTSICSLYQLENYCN
Description: as §1, §2

[8] = biological target: T4, Human recombinant Insulin; test: as above; remark: listed apart in the source
Description: as §1

renin [9] = biological target: T5, renin (human (produced in the Human Secretome …, UniProt P00797 24-406, limits assumed)); test: as above
T5 construct: also called bREN
T5 sequence (looked up): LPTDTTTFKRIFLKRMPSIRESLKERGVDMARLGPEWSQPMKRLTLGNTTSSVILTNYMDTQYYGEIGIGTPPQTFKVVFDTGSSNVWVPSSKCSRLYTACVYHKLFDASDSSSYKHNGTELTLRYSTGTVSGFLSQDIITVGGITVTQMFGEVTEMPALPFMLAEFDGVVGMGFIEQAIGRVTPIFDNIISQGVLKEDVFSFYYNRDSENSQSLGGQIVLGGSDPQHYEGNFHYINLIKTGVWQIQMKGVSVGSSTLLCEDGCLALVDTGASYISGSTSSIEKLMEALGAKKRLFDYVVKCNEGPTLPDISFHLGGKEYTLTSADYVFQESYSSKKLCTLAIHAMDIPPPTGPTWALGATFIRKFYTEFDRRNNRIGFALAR
Description: as §1, §2

renin [10] = biological target: T5, renin; test: as above; remark: listed apart in the source
Description: as §1

C-reactive protein [11] = biological target: T6, C-reactive protein (human (produced in the Human Secretome …, UniProt P02741 19-224)); test: as above
T6 construct: also called CRP; bCRP
T6 sequence (looked up): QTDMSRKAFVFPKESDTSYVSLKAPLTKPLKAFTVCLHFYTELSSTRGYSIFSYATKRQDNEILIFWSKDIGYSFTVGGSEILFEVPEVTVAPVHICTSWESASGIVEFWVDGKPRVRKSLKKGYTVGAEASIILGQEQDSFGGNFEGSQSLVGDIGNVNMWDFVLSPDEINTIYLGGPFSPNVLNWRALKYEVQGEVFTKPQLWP
Description: as §1, §2

C-reactive protein [12] = biological target: T6, C-reactive protein; test: as above; remark: listed apart in the source
Description: as §1

[13] = biological target: T7, Prostate Specific Antigen (human (produced in the Human Secretome …, UniProt P07288 18-261, limits assumed)); test: as above
T7 construct: also called PSA; bPSA
T7 sequence (P07288 18-261 limits assumed): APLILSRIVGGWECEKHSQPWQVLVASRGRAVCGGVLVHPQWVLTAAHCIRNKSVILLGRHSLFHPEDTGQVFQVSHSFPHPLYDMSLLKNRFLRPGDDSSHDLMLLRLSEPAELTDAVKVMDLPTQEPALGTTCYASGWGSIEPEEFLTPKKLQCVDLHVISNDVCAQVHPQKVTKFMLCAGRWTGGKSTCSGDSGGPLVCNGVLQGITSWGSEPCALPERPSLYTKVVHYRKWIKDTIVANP
Description: as §1, §2

[14] = biological target: T7, Prostate Specific Antigen; test: as above; remark: listed apart in the source
Description: as §1

T1 sequence (P02768 25-609 limits assumed): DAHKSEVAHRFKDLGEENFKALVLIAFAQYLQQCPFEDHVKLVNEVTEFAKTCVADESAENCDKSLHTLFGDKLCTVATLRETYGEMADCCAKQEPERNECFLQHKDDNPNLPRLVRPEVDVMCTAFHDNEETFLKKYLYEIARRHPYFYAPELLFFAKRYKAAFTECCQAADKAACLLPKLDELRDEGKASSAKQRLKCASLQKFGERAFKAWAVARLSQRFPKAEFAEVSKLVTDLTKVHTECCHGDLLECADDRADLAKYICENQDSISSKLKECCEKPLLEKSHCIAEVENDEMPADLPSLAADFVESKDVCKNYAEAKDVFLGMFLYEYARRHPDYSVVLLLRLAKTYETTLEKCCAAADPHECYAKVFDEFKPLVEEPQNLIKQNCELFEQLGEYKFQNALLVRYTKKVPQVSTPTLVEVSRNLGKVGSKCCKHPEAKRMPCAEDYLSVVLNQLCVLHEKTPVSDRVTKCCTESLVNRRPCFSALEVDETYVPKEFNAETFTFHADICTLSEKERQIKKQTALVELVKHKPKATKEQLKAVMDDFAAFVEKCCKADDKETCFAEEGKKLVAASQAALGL

Binder: LYVAKDNADWELWQYGVSDFYRSLIWKAKTVEGVEALKLHILAALP (designed binder) [ADAPT variant ANG_16]
Kd (Human Serum Albumin [1]): 1 nM | Kd (Human Serum Albumin [2]): 1 nM | koff (Human Serum Albumin [2]): 3e-05 s⁻¹ | kon (Human Serum Albumin [2]): 29000 M⁻¹ s⁻¹ | Kd (angiogenin [3]): 5.1 nM | koff (angiogenin [3]): 0.0005 s⁻¹ | kon (angiogenin [3]): 99000 M⁻¹ s⁻¹

Binder: LWAAKDDADWELWQYGVSDFYRALIWKAKTVEGVEALKLHILAALP (designed binder, also called ANG_6) [ADAPT variant ANG_06]
Kd (Human Serum Albumin [1]): 1.1 nM | Kd (Human Serum Albumin [2]): 1.1 nM | koff (Human Serum Albumin [2]): 2.6e-05 s⁻¹ | kon (Human Serum Albumin [2]): 24000 M⁻¹ s⁻¹ | Kd (angiogenin [4]): 4.9 nM | Kd (angiogenin [3]): 4.9 nM | koff (angiogenin [3]): 0.00032 s⁻¹ | kon (angiogenin [3]): 65000 M⁻¹ s⁻¹

Binder: LYWAKDYADYELWQYGVSDFYRSLIWKAKTVEGVEALKLHILAALP (designed binder, also called ANG_2) [ADAPT variant ANG_02]
Kd (Human Serum Albumin [1]): 2 nM | Kd (Human Serum Albumin [2]): 2 nM | koff (Human Serum Albumin [2]): 4.5e-05 s⁻¹ | kon (Human Serum Albumin [2]): 23000 M⁻¹ s⁻¹ | Kd (angiogenin [3]): 14 nM | koff (angiogenin [3]): 0.0007 s⁻¹ | kon (angiogenin [3]): 52000 M⁻¹ s⁻¹

Binder: LSKAKAQAWHELYYYGVSDFYLSLIDKAKTVEGVEALKLHILAALP (designed binder) [ADAPT variant CRP_23]
Kd (Human Serum Albumin [1]): 23 nM | Kd (Human Serum Albumin [2]): 23 nM | koff (Human Serum Albumin [2]): 0.007 s⁻¹ | kon (Human Serum Albumin [2]): 300000 M⁻¹ s⁻¹ | Kd (C-reactive protein [11]): 1900 nM | Kd (C-reactive protein [12]): 1900 nM | koff (C-reactive protein [12]): 0.0017 s⁻¹ | kon (C-reactive protein [12]): 890 M⁻¹ s⁻¹

Binder: LKVAKIIAFHELWEYGVSDFYLSLIDKAKTVEGVEALKLHILAALP (designed binder) [ADAPT variant CRP_38]
Kd (Human Serum Albumin [1]): 13 nM | Kd (Human Serum Albumin [2]): 13 nM | koff (Human Serum Albumin [2]): 0.0054 s⁻¹ | kon (Human Serum Albumin [2]): 410000 M⁻¹ s⁻¹ | Kd (C-reactive protein [11]): 52 nM | Kd (C-reactive protein [12]): 52 nM | koff (C-reactive protein [12]): 0.0017 s⁻¹ | kon (C-reactive protein [12]): 33000 M⁻¹ s⁻¹

Binder: LHYAKIMAFHELWQYGVSDFYLQLIDKAKTVEGVEALKLHILAALP (designed binder) [ADAPT variant CRP_48]
Kd (Human Serum Albumin [1]): 15 nM | Kd (Human Serum Albumin [2]): 15 nM | koff (Human Serum Albumin [2]): 0.0042 s⁻¹ | kon (Human Serum Albumin [2]): 280000 M⁻¹ s⁻¹ | Kd (C-reactive protein [11]): 62 nM | Kd (C-reactive protein [12]): 62 nM | koff (C-reactive protein [12]): 0.0012 s⁻¹ | kon (C-reactive protein [12]): 19000 M⁻¹ s⁻¹

Binder: LRVAKSMAWHELWSYGVSDFYLRLIDKAKTVEGVEALKLHILAALP (designed binder) [ADAPT variant CRP_09]
Kd (Human Serum Albumin [1]): 7.7 nM | Kd (Human Serum Albumin [2]): 7.7 nM | koff (Human Serum Albumin [2]): 0.0038 s⁻¹ | kon (Human Serum Albumin [2]): 490000 M⁻¹ s⁻¹ | Kd (C-reactive protein [11]): 1100 nM | Kd (C-reactive protein [12]): 1100 nM | koff (C-reactive protein [12]): 0.0013 s⁻¹ | kon (C-reactive protein [12]): 1200 M⁻¹ s⁻¹

Binder: LHEAKDWADYELWSYGVSDFYRALIWKAKTVEGVEALKLHILAALP (designed binder) [ADAPT variant ANG_13]
Kd (Human Serum Albumin [1]): 2.8 nM | Kd (Human Serum Albumin [2]): 2.8 nM | koff (Human Serum Albumin [2]): 6.8e-05 s⁻¹ | kon (Human Serum Albumin [2]): 25000 M⁻¹ s⁻¹ | Kd (angiogenin [4]): 0.028 nM | Kd (angiogenin [3]): 0.028 nM | koff (angiogenin [3]): 2.9e-06 s⁻¹ | kon (angiogenin [3]): 110000 M⁻¹ s⁻¹

Further lines, with some results ahead:

Kd (Human Serum Albumin [1]): 18 nM | Kd (Human Serum Albumin [2]): 18 nM | koff (Human Serum Albumin [2]): 0.00039 s⁻¹ | kon (Human Serum Albumin [2]): 21000 M⁻¹ s⁻¹
B1: ADAPT variant TNFα_05 (designed binder)
chain: LIWAKAEAVQELFMYGVSDFYYDLIIKAKTVEGVEALKLHILAALP
notes: Single domain of about 6 kDa, made in E. coli, purified on HSA resin
Kd [5]: 2.5 nM | Kd [6]: 2.5 nM | koff [6]: 0.0037 s⁻¹ | kon [6]: 1.5e+06 M⁻¹ s⁻¹

Kd (Human Serum Albumin [1]): 3.1 nM | Kd (Human Serum Albumin [2]): 3.1 nM | koff (Human Serum Albumin [2]): 0.0014 s⁻¹ | kon (Human Serum Albumin [2]): 460000 M⁻¹ s⁻¹ | Kd [7]: 1300 nM | Kd [8]: 1300 nM | koff [8]: 0.22 s⁻¹ | kon [8]: 180000 M⁻¹ s⁻¹
Binder: LAVAKAYAKYELAFYGVSDFYNELILKAKTVEGVEALKLHILAALP (designed binder, also called INS_03) [ADAPT variant Insulin_03]

Kd (Human Serum Albumin [1]): 5.5 nM | Kd (Human Serum Albumin [2]): 5.5 nM | koff (Human Serum Albumin [2]): 0.00064 s⁻¹ | kon (Human Serum Albumin [2]): 120000 M⁻¹ s⁻¹ | Kd (renin [9]): 410 nM | Kd (renin [10]): 410 nM | koff (renin [10]): 0.0035 s⁻¹ | kon (renin [10]): 8700 M⁻¹ s⁻¹
Binder: LMWAKAEAAIELVDYGVSDFYQYLISKAKTVEGVEALKLHILAALP (designed binder) [ADAPT variant REN_40]

Kd (Human Serum Albumin [1]): 23 nM | Kd (Human Serum Albumin [2]): 23 nM | koff (Human Serum Albumin [2]): 0.00027 s⁻¹ | kon (Human Serum Albumin [2]): 12000 M⁻¹ s⁻¹ | Kd (renin [9]): 76 nM | Kd (renin [10]): 76 nM | koff (renin [10]): 0.0024 s⁻¹ | kon (renin [10]): 32000 M⁻¹ s⁻¹
Binder: LYHAKWMASLELAKYGVSDFYWNLISKAKTVEGVEALKLHILAALP (designed binder) [ADAPT variant REN_01]

Kd (Human Serum Albumin [1]): 1.1 nM | Kd (Human Serum Albumin [2]): 1.1 nM | koff (Human Serum Albumin [2]): 0.0012 s⁻¹ | kon (Human Serum Albumin [2]): 1.1e+06 M⁻¹ s⁻¹ | Kd [13]: 280 nM | Kd [14]: 280 nM | koff [14]: 0.1 s⁻¹ | kon [14]: 360000 M⁻¹ s⁻¹
Binder: LTVAKFWALTELQEYGVSDFYANLITKAKTVEGVEALKLHILAALP (designed binder) [ADAPT variant PSA_01]

Kd (Human Serum Albumin [1]): 3.3 nM | Kd (Human Serum Albumin [2]): 3.3 nM | koff (Human Serum Albumin [2]): 0.0003 s⁻¹ | kon (Human Serum Albumin [2]): 92000 M⁻¹ s⁻¹ | Kd [13]: 300 nM | Kd [14]: 300 nM | koff [14]: 0.059 s⁻¹ | kon [14]: 200000 M⁻¹ s⁻¹
Binder: LFRAKVWAVWELDQYGVSDFYDELIWKAKTVEGVEALKLHILAALP (designed binder) [ADAPT variant PSA_05]

Kd (Human Serum Albumin [1]): 3.9 nM | Kd (Human Serum Albumin [2]): 3.9 nM | koff (Human Serum Albumin [2]): 0.0014 s⁻¹ | kon (Human Serum Albumin [2]): 360000 M⁻¹ s⁻¹ | Kd [7]: 950 nM | Kd [8]: 950 nM | koff [8]: 0.22 s⁻¹ | kon [8]: 240000 M⁻¹ s⁻¹
Binder: LVIAKAYAQYELAFYGVSDFYSDLIKKAKTVEGVEALKLHILAALP (designed binder, also called INS_01) [ADAPT variant Insulin_01]

Kd (Human Serum Albumin [1]): 9.5 nM | Kd (Human Serum Albumin [2]): 9.5 nM | koff (Human Serum Albumin [2]): 0.00034 s⁻¹ | kon (Human Serum Albumin [2]): 36000 M⁻¹ s⁻¹
Binder: LIWAKASAVRELHRYGVSDFYYELIVKAKTVEGVEALKLHILAALP (designed binder) [ADAPT variant TNFα_09]
Kd [5]: 3.6 nM | Kd [6]: 3.6 nM | koff [6]: 0.0032 s⁻¹ | kon [6]: 890000 M⁻¹ s⁻¹

— patent US20230250160A1 (HOBER BIOTECH, published 2023)
